Measurements as given in patent publication EP2078752A2 (LUDWIG INSTITUTE FOR CANCER RESEARCH, dated 2009).

Tests used:
Assay in all cases: affinity cross-linking of 125I-activin A then immunoprecipitation, COS-1 cells co-transfected with ActR-II
human ALK-1 (clone HP57) = biological target: T1, human ALK-1 (clone HP57) (human, UniProt P37023 22-503)
T1 construct: Expressed from cDNA in COS-1 cells, or endogenous in HUVEC; also called hALK-1

[1] = biological target: T2, human ALK-5 (clone EMBLA), TGF-β type I receptor (human, UniProt P36897 25-503)
T2 construct: Expressed from cDNA in COS-1 cells and PAE cells (PAE/TβR-I), or endogenous in human cell lines and HUVEC; also called hALK-5; TβR-I
T2 sequence: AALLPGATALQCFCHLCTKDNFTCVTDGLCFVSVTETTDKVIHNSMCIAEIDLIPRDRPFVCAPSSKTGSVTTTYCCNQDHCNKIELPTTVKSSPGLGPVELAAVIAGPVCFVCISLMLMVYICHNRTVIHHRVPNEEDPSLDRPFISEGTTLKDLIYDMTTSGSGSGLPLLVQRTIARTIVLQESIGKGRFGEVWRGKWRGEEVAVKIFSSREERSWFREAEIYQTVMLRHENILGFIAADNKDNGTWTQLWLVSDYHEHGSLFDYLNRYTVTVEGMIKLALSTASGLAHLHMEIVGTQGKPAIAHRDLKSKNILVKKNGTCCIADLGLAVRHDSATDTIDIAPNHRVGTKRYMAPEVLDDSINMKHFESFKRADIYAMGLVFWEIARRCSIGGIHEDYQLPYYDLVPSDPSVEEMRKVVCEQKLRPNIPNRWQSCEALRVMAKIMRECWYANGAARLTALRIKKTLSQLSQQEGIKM

mouse ALK-6 (clone ME-6) = biological target: T3, mouse ALK-6 (clone ME-6) (mouse, UniProt P36898 14-502)
T3 construct: Expressed from cDNA in COS-1 cells; also called mALK-6; BMPR-IB
T3 sequence (P36898 14-502 limits assumed): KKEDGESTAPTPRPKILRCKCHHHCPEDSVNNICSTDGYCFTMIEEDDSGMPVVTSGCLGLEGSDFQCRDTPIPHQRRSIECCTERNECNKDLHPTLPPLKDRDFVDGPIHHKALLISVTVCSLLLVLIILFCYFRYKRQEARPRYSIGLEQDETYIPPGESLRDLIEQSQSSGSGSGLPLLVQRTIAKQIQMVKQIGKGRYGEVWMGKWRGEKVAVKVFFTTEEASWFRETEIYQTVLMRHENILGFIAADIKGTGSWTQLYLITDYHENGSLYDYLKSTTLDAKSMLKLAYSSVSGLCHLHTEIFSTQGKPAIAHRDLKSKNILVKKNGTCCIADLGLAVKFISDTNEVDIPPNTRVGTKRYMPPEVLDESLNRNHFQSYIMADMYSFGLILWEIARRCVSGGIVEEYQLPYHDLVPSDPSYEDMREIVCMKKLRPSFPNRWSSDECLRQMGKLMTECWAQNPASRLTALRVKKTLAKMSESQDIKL

T1 sequence (P37023 22-503 S172T limits assumed): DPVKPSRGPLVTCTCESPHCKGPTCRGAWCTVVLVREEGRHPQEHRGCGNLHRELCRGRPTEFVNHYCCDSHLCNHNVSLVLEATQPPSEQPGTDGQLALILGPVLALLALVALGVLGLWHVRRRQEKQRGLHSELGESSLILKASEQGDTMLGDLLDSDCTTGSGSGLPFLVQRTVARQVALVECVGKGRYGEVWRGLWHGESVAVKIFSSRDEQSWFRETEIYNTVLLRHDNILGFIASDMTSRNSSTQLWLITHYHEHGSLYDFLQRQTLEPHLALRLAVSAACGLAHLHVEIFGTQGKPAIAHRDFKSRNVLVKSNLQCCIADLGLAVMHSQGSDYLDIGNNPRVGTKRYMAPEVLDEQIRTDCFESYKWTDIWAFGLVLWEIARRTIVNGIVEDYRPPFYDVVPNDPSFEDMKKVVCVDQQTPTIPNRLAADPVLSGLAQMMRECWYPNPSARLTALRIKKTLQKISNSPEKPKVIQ

binding result (human ALK-1 (clone HP57)): binds | binding result [1]: binds | binding result (mouse ALK-6 (clone ME-6)): binds
B1: recombinant human activin A, iodinated (^125I-activin A) (ligand, UniProt P08476 311-426, looked up)
chain: GLECDGKVNICCKKQFFVSFKDIGWNDWIIAPSGYHANYCEGECPSHIAGTSGSSLSFHSTVINHYRMRGHSPFANLKSCCVPTKLRPMSMLYYDDGQNIIKKDIQNMIVEECGCS
modifications: 125I-iodinated by the chloramine T method
notes: Recombinant ligand
